# Source: patent US8956838B2, “Carboxyl esterase polypeptides” (B.R.A.I.N., priority 2006, dated 2015)
# Legend:
# Format in all cases: biochemical
# [1] = Titration assay with triglycerides; conditions: 10 mM, 37° C., pH 7.0
# Experimental: Enzyme activities on the substrates triacetin, tripropionin, tributyrin, tricaprylene, trilaurin and vinyl-substrates (vinyl-acetate, ˜propionate, ˜butyrate, ˜caproate, ˜caprylate and ˜laurate) were determined using a standard titration assay with minor modifications. Tests were performed with a Methrom 718 STAT potentiometric titrator (Herisau, Switzerland) and by using 10 mM NaOH for titration. The substrates at 10 mM concentration were emulsified in 20 ml reaction buffer containing 2 mM Tris/HCl pH 7.0. After addition of 7.5 μg of the purified enzyme the NaOH consumption was recorded at a reaction temperature of 37° C. One unit was defined as the amount of enzyme that released […] of fatty acid per min.
# [2] = Effect of bivalent cations and EDTA on catalytic activity
# [3] = Determination of thermal stability
# Experimental: To assay the thermostability of the enzymes they were incubated at different temperatures for one hour and the residual activity assayed at 10 minute intervals. Residual activity was measured using pNP-caproate as substrate as described above.
# [4] = Enzyme activity with pNP-acylesters of different chain length; conditions: 4 mM, 45° C., pH 7.2
# Experimental: Enzyme activity tests were performed by incubating the enzyme with 4 mM substrate at 45° C. in 100 mM Tris-HCl buffer at pH 7.2, unless otherwise indicated. The reaction was measured at 410 nm. One unit is defined as the amount of enzyme catalyzing the appearance of 1 μmol of free p-nitrophenol/min. Enzyme activity against pNP-acylesters (butyrate, valerate, caproate, octanoate, decanoate and palmitate) was tested under the above conditions. […] The enzyme according to SEQ ID NO: 6 converted pNP-caproate with a specific activity of 80.0 U/mg.
# [5] = Enantioselectivity, GC analysis of hydrolysis of acetic acid esters; conditions: for conversion %: ^2 only complete conversion could be measured
# Experimental: To assay the activity of the enzymes on a range of acetic acid esters gas chromatography was used. The samples were analyzed for the production of chiral alcohols by the gas chromatograph GC-17A (Shimadzu, Duisburg, Germany) equipped with FID detector and CP-Chirasil-DEX CB (Chrompack (Middelburg, Netherlands), 25 m×0.25 mm ID) at a helium flow of 1.3 ml/min. The temperature programme included: 5 min at 60° C., followed by an increase of 5° C. per min until 190° C. was reached. For the GC analysis, activity-tests were run in 1 M Tris buffered solutions and using 10 mM substrates dissolved in DMSO as 0.1 M stock solutions. 2 μg of the enzyme were added and tests incubated over night before the corresponding alcohols could be extracted by treatment with acetic acid ethyl ester and analyzed by GC.
# [6] = Determination of pH optimum by titration; conditions: incubation for up to 48 hours, up to pH 12 (data not shown)
# Experimental: The pH optimum for the enzymes was determined using tributyrin as substrate. The incubation conditions were 20 ml buffer (2.5 mM phosphate buffer [pH 4-7], 2.5 mM Tris/HCl buffer [pH 7-11] or 2.5 mM glycine buffer [pH 9-11], supplemented with 100 mM NaCl) stirred at a constant temperature of 37° C. The esterase substrate tributyrin (final concentration of 2 mM) was added to 5 ml of the corresponding buffer at 37° C., emulsified and added to the whole preparation. This substrate emulsion was held constant at the correct pH automatically by the titrator (718 STAT Titrino; Metrohm, Herisau, Switzerland) for 2 min and this served as the control. […]
# [7] = Solvent stability, residual activity; conditions: 1 h at 30° C., measured at 45° C.
# Experimental: The stability of the enzymes was determined in the presence of the following solvents: DMSO, isopropanol, methanol, dimethylformamide, acetone and acetonitrile. The enzymes were incubated for 1 hour at 30° C. in the presence of either 15% (v/v) or 30% (v/v) of the solvents and the residual activity was measured at 45° C. The substrate used was pNP-butyrate.
# [8] = Substrate specificity on pNP-substrates with importance for pharmaceutical products; conditions: 30 minute, 40° C., pH 7.5
# Experimental: The substrate range of the two enzymes was determined using pNP esters of the following: benzoate, 2-(4-isobutylphenyl)propanoate (Ibuprofen), 2-phenylpropanoate, 3-phenylbutanoate, cyclohexanoate, 2-(3-benzoylphenyl)propanoate, 2-naphthoate, 1-naphthoate, adamantanoate and 2-(6-methoxynaphthalene-2-yl)propanoate (Naproxen). Activity was determined at 410 nm after 30 minute incubation at 40° C. The reaction mixture was 950 μl buffer (100 mM Tris, pH 7.5), 50 μl substrate (5 mg/ml in DMSO) and 1 μg enzyme.
# [9] = substrate Acetic acid ester of tetrahydronaphthylamin
# [10] = substrate acetic acid ester of (+/−)-1-octin-3-ol, 10 mM, over night
# [11] = substrate acetic acid ester of cis-1,2-cyclohexandiol, values marked ^1: substrate conversion after 12 h
# [12] = substrate acetic acid ester of phenylethylamin
# [13] = substrate acetic acid ester of trans-1,2-cyclohexandiol
# [14] = substrate cis-3,5-diacetoxy-1-cyclopenten
# [15] = substrate isopropylidenglycerolacetate (rac.), values marked ^1: substrate conversion after 12 h
molecule,measurement,setting,value
"EstCE1: recombinant enzyme having carboxyl esterase activity, amino acid sequence SEQ ID NO: 4, family VIII of bacterial lipolytic enzymes (protein, metagenomic sequence) MSIADQSLAKRVQGVSQQAIDEGRIVGSVVLIARHGRVIYANASGYADREQKKPMVRETQFRLSSVSKPYITLAAMRMIEQQKLGLDDTVSRWLPWFTPALADGVRPPIKIRHLLSHTAGLDYRLSQPAEGPYHRLGIKDGMELSSLTLEQNLRLLAQADLLAEPGSEFRYSLAIDVLGAVLEQVAGEPLPQVFNHWVAQPLGLRNTGFYTTDVDNLATAYHDTAAEPEPIRDGMLLTLPEGFGFEIELAPSRALDAQAYPSGGAGMVGDADDVLQLVETLRTGKEGILQPATAALMRQAHVGSHAETQGPGWGFGFGGAVLEDAQLAATPQHNGTLQWGGVYGHSWFYDPQAAISVVALTNTAFEGMSGRYPLQIRDAVYGTNEPTR",specific activity,[1]; substrate triacetin (C2),26.7 U/mg
same,specific activity,[1]; substrate tributyrin (C4),54.7 U/mg
same,specific activity,[1]; substrate tricaprylin (C8),0 U/mg
same,specific activity,[1]; substrate trilaurin (C12),0 U/mg
same,specific activity,[1]; substrate tripropionin (C3),33.3 U/mg
same,stimulatory effect on catalytic activity,[2]; in the presence of Ca^2+,118%
same,stimulatory effect on catalytic activity,[2]; in the presence of Mg^2+,108%
same,"thermal stability, in words",[3]; incubated for at least 60 minutes at 40° C.,without a major loss of activity
same,"thermal stability, in words",[3]; incubation at temperatures above 45° C. for more than 60 minutes (data not shown),rapid inactivation
same,specific activity,[4]; substrate pNP-butyrate (C4),31.1 U/mg
same,specific activity,[4]; substrate pNP-caproate (C6),7.4 U/mg
same,specific activity,[4]; substrate pNP-decanoate (C10),0.9 U/mg
same,specific activity,[4]; substrate pNP-octanoate (C8),1.0 U/mg
same,specific activity,[4]; substrate pNP-palmitate (C16),0.0 U/mg
same,specific activity,[4]; substrate pNP-valerate (C5),22.9 U/mg
same,"hydrolysis, in words",[5]; acetic acid ester of R-(+)-3-chlor-1-phenyl-1-propanol,capable of hydrolyzing
same,"conversion, in words","[5]; acetic acid ester of cis-1,2-cyclohexanediol",capable of converting
same,"conversion, in words",[5]; acetic acid ester of isopropylidene glycerol,capable of converting
same,"hydrolysis, in words",[5]; acetic acid ester of rac-1-octin-3-ol,capable of hydrolyzing
same,"hydrolysis, in words",[5]; acetic acid ester of trimethylsilylbutinol,capable of hydrolyzing
same,conversion % of 1.e,[5]; [9],0%
same,conversion % of 2.e,[5]; [9],0%
same,ee %,[5]; substrate acetic acid ester of (+/−)-1-octin-3-ol,3%
same,conversion % of 1.e,[5]; [10],64%
same,conversion % of 2.e,[5]; [10],60%
same,conversion %,[5]; substrate acetic acid ester of R-(+)-3-chlor-1-phenyl-1-propanol,100^2%
same,ee %,"[5]; substrate acetic acid ester of cis-1,2-cyclohexandiol",0%
same,conversion % of 1.e,[5]; [11],100^1%
same,conversion % of 2.e,[5]; [11],100^1%
same,conversion % of 1.e,[5]; [12],0%
same,conversion % of 2.e,[5]; [12],0%
same,conversion % of 2.e,[5]; [13],45%
same,ee %,[5]; [13],38%
same,conversion % of 1.e,"[5]; substrate acetic acid ester of trans-1,2-cyclohexandiol, in text: conversion of the preferred enantiomer",100%
same,conversion %,[5]; substrate acetic acid ester of trimethylsilylbutinol,100^2%
same,conversion % of 2.e,[5]; [14],59%
same,ee %,[5]; [14],66%
same,conversion % of 1.e,"[5]; substrate cis-3,5-diacetoxy-1-cyclopenten, conversion for the preferred enantiomer",12%
same,ee %,[5]; substrate isopropylidenglycerolacetate (rac.),0%
same,conversion % of 1.e,[5]; [15],100^1%
same,conversion % of 2.e,[5]; [15],100^1%
same,ee %,"[5]; substrate menthylacetate (rac), for the (+)-enantiomer",100%
same,conversion % of 1.e,"[5]; substrate menthylacetate, 1. enantiomer (+)",100%
same,conversion % of 2.e,"[5]; substrate menthylacetate, 2.e. (−)",0%
same,"stability under alkaline conditions, in words",[6],extremely stable with little loss of activity
same,Residual activity after 1 h incubation in the presence of solvent,[7]; 15% (v/v) Acetone,14%
same,Residual activity after 1 h incubation in the presence of solvent,[7]; 15% (v/v) Acetonitrile,0%
same,Residual activity after 1 h incubation in the presence of solvent,[7]; 15% (v/v) DMSO,103%
same,Residual activity after 1 h incubation in the presence of solvent,[7]; 15% (v/v) Dimethylformamid,34%
same,Residual activity after 1 h incubation in the presence of solvent,[7]; 15% (v/v) Isopropanol,75%
same,Residual activity after 1 h incubation in the presence of solvent,[7]; 15% (v/v) Methanol,90%
same,Residual activity after 1 h incubation in the presence of solvent,[7]; 30% (v/v) Acetone,0%
same,Residual activity after 1 h incubation in the presence of solvent,[7]; 30% (v/v) Acetonitrile,0%
same,Residual activity after 1 h incubation in the presence of solvent,[7]; 30% (v/v) DMSO,17%
same,Residual activity after 1 h incubation in the presence of solvent,[7]; 30% (v/v) Dimethylformamid,0%
same,Residual activity after 1 h incubation in the presence of solvent,[7]; 30% (v/v) Isopropanol,23%
same,Residual activity after 1 h incubation in the presence of solvent,[7]; 30% (v/v) Methanol,0%
same,specific activity,[8]; pNP-ester of 1-naphthoate,0 U/mg
same,specific activity,[8]; pNP-ester of 2-(3-benzoylphenyl) propanoate,0.8 U/mg
same,specific activity,[8]; pNP-ester of 2-(4-isobutylphenyl) propanoate (Ibuprofen),0 U/mg
same,specific activity,[8]; pNP-ester of 2-(6-methoxy-naphthalen-2-yl) propanoate (Naproxen),0 U/mg
same,specific activity,[8]; pNP-ester of 2-naphthoate,0 U/mg
same,specific activity,[8]; pNP-ester of 2-phenylpropanoate,0 U/mg
same,specific activity,[8]; pNP-ester of 3-phenylbutanoate,1.0 U/mg
same,specific activity,[8]; pNP-ester of adamantanoate,0 U/mg
same,specific activity,[8]; pNP-ester of benzoate,12.1 U/mg
same,specific activity,[8]; pNP-ester of cyclohexanoate,16.8 U/mg
